Amyloid nucleation score data for 142 substances are collected here from the supplement of paper PMC12042874.

± gives the uncertainty stated by the source.

The series is described as follows: amyloid nucleation score (Sup35N fusion, yeast selection) (log enrichment); library NNK1; higher = more nucleation; inactive = no reads after selection. Put shortly:
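Using DiMSum, nucleation scores were taken as the log enrichment of output over input reads, centred on the mode score of non-aggregating sequences. The input and output reads came from Illumina sequencing of plasmid inserts, with sequences under 100 input reads excluded. The yeast were psi-negative, expressed Sup35N fused to peptides of 20 random codons, were induced with 100 μM copper sulfate for 24 hours, and were grown 7 days at 30°C on medium lacking adenine and uracil.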

SSLPRYNPR: the amyloid nucleation score result was “inactive”.
In turn, DSFQGRS displayed an amyloid nucleation score of 0.255 ± 0.47.
Substance TFTCMPLLWLIFS gave an amyloid nucleation score of 6.029 ± 0.057.
Substance GWWGHGFALRSFVLIAHLDV registered an amyloid nucleation score of 0.06 ± 0.72.
In the case of VARTW, the amyloid nucleation score was determined as 0.602 ± 0.57.
The figure for SCNVFGASWRLTVNDVWYKW is 0.651 ± 0.22; for MRKVYNEWLKTNYYKHMNRV it is 0.452 ± 0.51; for CLTIGCWRFSF it is 4.57 ± 0.093.
Consider VWSNMCFLIDSI, for which the amyloid nucleation score is -0.491 ± 0.3.
In turn, KVEVWRVLGNSVQRRFSKDQ gave an amyloid nucleation score of 0.353 ± 1.1.
Under RGNLGLDLWICSGYRMVMFQ stands -0.784 ± 0.3; under VNLNVFLRR, 0.059 ± 0.45.
Under LITLAFVVSCVSYSRGSKRW stands 1.31 ± 0.23.
Take ASLAMISRMYSSYLDGMVFS: the amyloid nucleation score is -0.412 ± 0.91.
RMMFCVVAESGFQVWEVRSG: the amyloid nucleation score was -0.502 ± 0.42.
Substance LCRMFRIVAVGYMDQRCRT displayed an amyloid nucleation score of 0.479 ± 0.49.
Consider MLNELWVQRWINLSLKYDNQ, for which the amyloid nucleation score worked out at 0.957 ± 0.45.
In turn, FYFRHSVLMCKHLFQFDYKE showed an amyloid nucleation score of 0.668 ± 0.45.
For VEWASRDTHWRSLSLIIYLG, the amyloid nucleation score result is “inactive”.
GRPFALRWLDLGLLTDDPKG came in with an amyloid nucleation score of -0.164 ± 0.32.
With LPFMHYYHSGY, the amyloid nucleation score was -0.814 ± 1.4.
With PIDGTFL, the amyloid nucleation score was -0.69 ± 0.62.
As for QISRCILNNPRPCLSF, the amyloid nucleation score was 1.01 ± 0.9.
Consider ISFDSLWDCSYS, for which the amyloid nucleation score was -0.232 ± 0.23.
The substance GLFTVNDV displayed an amyloid nucleation score of 0.374 ± 0.36.
Under RQVPPISGAISWGDSPSNGG stands 0.18 ± 1.2; under YSAVWRSMYTQNLWVPTGMG, 1.83 ± 0.27.
The figure for TRPLPWTQP is 0.242 ± 0.47; for IFVVGKGDLGCCQI it is 0.967 ± 0.35.
As to AFALHSHFLSL, the amyloid nucleation score is 1.75 ± 0.19.
In the case of MNYVSMHDYYRVVH, the amyloid nucleation score came out at 0.128 ± 0.61.
The figure for MDVIFGLMS is 0.729 ± 0.51; for SKTGRGTLVMEVSRCEVYDF it is 0.027 ± 1.7.
Turning to KYVIKCTSWVGAMTHSSSKA, the amyloid nucleation score is 0.333 ± 0.24.
In the case of FMSICPSTNGRCACRWLRM, the amyloid nucleation score is 0.857 ± 0.98.
For IFIFYGTRGSFRLRVAY, the amyloid nucleation score was 2.72 ± 0.24.
Under NSHLVFMGMLFLRISDDFVR stands -0.083 ± 1.4.
As for QIWTFRGRVLVGHTSREVVG, the amyloid nucleation score came to 0.122 ± 0.24.
The figure for YTTIYLVIFSFC is 6.48 ± 0.068; for RSNEIVEFGSPWYKMTKGMR it is 0.44 ± 0.31.
With TVHVGTVPKFSYRFGIMGTE, the amyloid nucleation score was -0.482 ± 0.66.
The substance GVRETHLPSMLRRTALRFTF showed an amyloid nucleation score of 0.026 ± 0.36.
In the case of SIYDARRMVRVHTFHEGLL, the amyloid nucleation score was -0.577 ± 1.4.
Under CVCLKDPANLSAIGCRGESL stands -1.6 ± 2.7; under SMVLKTTDAGDNLHSKCNML, -1.09 ± 0.68; under AVVDRDMHYASTCSGGVGCH, -0.186 ± 0.96.
Take HYIPRRN: the amyloid nucleation score is -0.016 ± 1.7.
The substance NYNVTNNALADR showed an amyloid nucleation score of -0.368 ± 1.7.
In turn, LNSNPDCKTLFIHAWW displayed an amyloid nucleation score of 0.282 ± 1.2.
As to RTGLY, the amyloid nucleation score amounted to 0.108 ± 0.33.
For the substance WSKTSDDSVWWTWTDGIMFV, the amyloid nucleation score is 1.92 ± 0.46.
As to WLGVNDSLGFICEAVGWYGW, the amyloid nucleation score came out at 0.604 ± 0.63.
In turn, WSCLSSLRDLGNGGYMM showed an amyloid nucleation score of 0.05 ± 0.62.
NPGAYKYHSLSYTSRGGMFV: the amyloid nucleation score turned out to be 0.486 ± 0.38.
On to YVVGARNEVRGYRVGTRLIR, for which the amyloid nucleation score was 0.155 ± 1.5.
Substance KCTVDQTSNIAACTSVGLCI returned an amyloid nucleation score of 5.36 ± 0.093.
In turn, LLQSGGLVIRVHCSMFTVGA yielded an amyloid nucleation score of -0.889 ± 0.78.
With THVSDFLWDVNVSGNNTCSR, the amyloid nucleation score turned out to be 1.14 ± 0.37.
On to PIYVAGLGIVI, for which the amyloid nucleation score was -0.308 ± 1.1.
Under QGIEKGFDWKRIFCGELYVQ stands -0.065 ± 0.4.
HLIDVTILGWDEVSIM displayed an amyloid nucleation score of 1.26 ± 0.37.
Substance IKLQWS gave an amyloid nucleation score of -0.323 ± 0.53.
The figure for TSIMRVTILLISGGRLDVFL is -0.896 ± 1; for ICTVSLLYFVYDKYCHNATL it is -0.444 ± 0.56; for LCALVRICFPMADYEGRGGC it is 2.33 ± 0.14.
For RIVQLFSRRNMRCFFIKE, the amyloid nucleation score stood at 3.07 ± 0.09.
As to GCYWIMAMGQILRRLEDAAG, the amyloid nucleation score amounted to 1.14 ± 0.72.
The substance PHPPAPKK registered an amyloid nucleation score of 0.067 ± 0.59.
For the substance HRRFLAPME, the amyloid nucleation score stood at 0.385 ± 0.3.
ANTPRFMNTLV: the amyloid nucleation score was -0.824 ± 0.51.
In the case of RTIIDESVTAFLIWFCYVTV, the amyloid nucleation score was -0.21 ± 0.26.
RMMLVV registered an amyloid nucleation score of -0.181 ± 0.37.
The figure for GPDINSCRSCFSWYIVWFLV is 0.318 ± 0.7.
In turn, WVHVCGGHCNWLICSMASNG came in with an amyloid nucleation score of 7.889 ± 0.061.
The substance VIKDFNDNYTGFRHYSKILI gave an amyloid nucleation score of -0.634 ± 1.7.
For the substance SCLKSDVYVCCEDLRRLDCV, the amyloid nucleation score is -0.453 ± 0.38.
In turn, QYRGDIYKISG showed an amyloid nucleation score of 1.29 ± 0.56.
Substance ISCQQSE had an amyloid nucleation score of -1.57 ± 2.4.
GGRSS: the amyloid nucleation score was -0.058 ± 0.58.
For the substance FRKLAIFHLAE, the amyloid nucleation score came out at 0.207 ± 0.69.
As to MVHMCWLTME, the amyloid nucleation score worked out at 0.454 ± 0.25.
RSYCKRALMLDWFAISRMRL yielded an amyloid nucleation score of 0.082 ± 0.51.
Under NFCLWHNWYVMSVLERGD stands 7.893 ± 0.071; under GIRMRSKNYGSWWFPLLYGE, 0.827 ± 0.84; under CLARNSYPDVFRSETGKEAV, -0.093 ± 0.7.
The substance VGSTLYHLRKDMSTLSPGMY registered an amyloid nucleation score of 0.012 ± 0.34.
With LNVIVKDRGPCKSSSEIAVD, the amyloid nucleation score is -1.35 ± 1.3.
On to GVGIFAIYWFTMPHVRPRVI, for which the amyloid nucleation score was -1.13 ± 1.
Regarding FMVACWHSKWAYDNCYYNSS, the amyloid nucleation score entry is “inactive”.
Consider LSSRFAWCIWGET, for which the amyloid nucleation score worked out at 0.956 ± 0.73.
With VVGSMVRSGLGPQPMTS, the amyloid nucleation score was 1.08 ± 0.68.
In turn, QMLQVPYQSFVALGVAWVRT yielded an amyloid nucleation score of 0.646 ± 0.66.
The entry for VGHYGRETHLCSWCQIANGA is “inactive”; for RTCVIVKMNSTIALYLGQKE it is 2.52 ± 0.12; for ATLEGVCNINHPSCCASLLD it is 0.002 ± 0.61.
Turning to WPCPVVRFLPWKNYISGYSF, the amyloid nucleation score was determined as 0.392 ± 0.64.
The figure for FAHHLYINRMSRFIDARVTI is 2.37 ± 0.13; for YRESSATGMMSGSDLKRWQV it is -2 ± 2.4.
Turning to SLRITLVWGRMQCGPESVCR, the amyloid nucleation score came out at 0.745 ± 0.24.
For the substance KLVTAPISKSLF, the amyloid nucleation score was 0.55 ± 0.92.
As to SWTKVHLLVQAL, the amyloid nucleation score was -1.14 ± 0.86.
Substance FVHVYLERDRPNLTPFI returned an amyloid nucleation score of 0.084 ± 0.33.
The substance WINKYYDLN displayed an amyloid nucleation score of 0.472 ± 0.42.
As to FLRALCSVGSRHTTPAFDYG, the amyloid nucleation score was 0.351 ± 0.43.
VMSKSNPIAV: the amyloid nucleation score was 0.24 ± 0.54.
Regarding MVGVLVKVREKAVMGPGQFG, the amyloid nucleation score is 0.804 ± 0.29.
For the substance YFTLFDSRKTVLRSENNTRW, the amyloid nucleation score worked out at 0.578 ± 0.32.
The figure for VCTCIFRFQFLILCVRVCEL is 0.293 ± 0.85; for FRELVDERLRRASQFHWFHF it is 0.557 ± 0.8; for AILVGMFYAKTVGGQYRVHG it is 0.369 ± 0.61.
FTQRSSVR: the amyloid nucleation score was found to be 0.651 ± 0.7.
Regarding STLSVLLSWQN, the amyloid nucleation score was 0.01 ± 0.41.
RTDFLMFIGCVMNKICTLKA registered an amyloid nucleation score of 0.73 ± 0.33.
For YGVCT, the amyloid nucleation score was found to be 0.49 ± 0.22.
Under MNTLYCWGKCGLVTSLVGLI stands 0.059 ± 0.73; under QRILTSYGRDMLTSLLRSMP, 1.01 ± 0.58.
The substance VDPAD yielded an amyloid nucleation score of 0.553 ± 0.43.
Consider TLQTTWLKNLGDLSSSREAS, for which the amyloid nucleation score is -0.184 ± 0.41.
With HMLGKASGVLFNQRAVTGG, the amyloid nucleation score was found to be 0.696 ± 0.79.
The figure for LRIVS is -0.11 ± 0.4.
In the case of MPGLWVFASALTQQEGTLEM, the amyloid nucleation score is -0.251 ± 0.79.
LNCWLNRSVYVRLNRQDGKT gave an amyloid nucleation score of 2.5 ± 0.31.
In turn, YGFLNPTSSR registered an amyloid nucleation score of 0.632 ± 0.5.
For RIFNKDSLGI, the amyloid nucleation score is -0.554 ± 0.48.
CDVAVVSFFGMADDPVYRVH returned an amyloid nucleation score of 1.54 ± 0.48.
As for GIWIRVSLAMRVTTSRRLGN, the amyloid nucleation score amounted to 2.57 ± 0.17.
On to AFYSEMGFSDVYILLVYSMM, for which the amyloid nucleation score stood at 4.45 ± 0.073.
Regarding VRRQFVPKSYLCCESYFNEV, the amyloid nucleation score amounted to 0.32 ± 0.56.
In turn, TYSRARAQSIMFVRLFKACL returned an amyloid nucleation score of 0.643 ± 0.34.
The figure for FMCVGSYDPYPWP is 0.659 ± 0.51; for TYRNHYCKDKAL it is 0.175 ± 0.75.
Regarding CENVIEFNENVKG, the amyloid nucleation score came out at 0.503 ± 0.29.
The substance KLNLKFYAFYNM came in with an amyloid nucleation score of 5.49 ± 0.073.
Take FFYSNALLWSWIVGYSCTRL: the amyloid nucleation score was found to be 0.537 ± 0.44.
Consider KTGARYSLSACYLTRTDYHW, for which the amyloid nucleation score came out at 0.056 ± 0.43.
The figure for DCYHLGQTIPISRFGLRTKL is 0.826 ± 0.75.
On to GFSMTKCAYTNTH, for which the amyloid nucleation score turned out to be 1.68 ± 0.17.
Under RMWRYASCHYI stands 1.73 ± 0.76; under ETGSDEI, -0.55 ± 0.39; under MWGFWTFFDGLAYPFVMHKT, 0.054 ± 0.53.
Consider GCRGFLIPRMVYS, for which the amyloid nucleation score is -0.398 ± 0.97.
Under IRSSFMLRCIVSYVPCNTGL stands -0.027 ± 1.1.
